In data set [1] the target is PD-1 (programmed cell death protein 1) (Homo sapiens, UniProt Q15116 Q15116:25-170). Briefly: competition; inhibition of PD-1/PD-L1 interaction. The following applies: tags: His tag, immobilized on Ni-NTA plate. The method, then:
Each of the above aptamer nucleotide sequences were tested for PD-1 antagonistic activity using an in vitro competition assay. Briefly, 200 ng of histidine-tag labeled PD-1 receptors (His tag-PD1 protein) were coated on nickel-nitrilotriacetic acid (Ni-NTA) coated plates and treated with Fc-labeled PDL-1 protein/aptamer mixture. Protein G-HRP and ECL substrate was used to determine the binding signal. The PD-1 antagonistic antibody J116 was used as a positive control and the negative control was performed in the absence of aptamer or antibody. A schematic representation of the competition assay is shown in FIG. 8, panels A and B. Each of the aptamer sequences (Cores 1-6 and Core 1(optimized)) were tested in the in vitro competition assay at a concentration of 200 nM. In the competition assay, each aptamer nucleotide sequence inhibited the interaction between PD-1 and PDL-1 as shown in FIG. 6.

Data set [2] concerns the target T1, PD-1 (programmed cell death protein 1) (Mus musculus, UniProt Q02242 Q02242:25-169). The data set is described as follows: ELONA; ++ class. The following applies: tags: His tag, immobilized on Ni-NTA plate; label: 5'-biotin. The method, then: (§1) Briefly, 200 ng of histidine-tag labeled PD-1 receptors (His tag-PD1 protein) were coated on nickel-nitrilotriacetic acid (Ni-NTA) coated plates and treated with aptamers conjugated at their 5′ end to biotin (Biotin-PD-1 aptamer). Binding of the aptamers to PD-1 was detected using streptavidin-HRP and ECL substrate. The aptamers tested were:
(§2) The above aptamers were tested for binding to human, mouse, rat, rhesus monkey and/or canine PD-1 using the in vitro PD-1 binding assay depicted in FIG. 9.

Data set [3] deals with PD-1 (programmed cell death protein 1) extracellular domain (UniProt Q15116 Q15116:25-170). Briefly: filter; total binding assay.
Chain of PD-1 (programmed cell death protein 1) extracellular domain (Q15116 25-170, one chain of several): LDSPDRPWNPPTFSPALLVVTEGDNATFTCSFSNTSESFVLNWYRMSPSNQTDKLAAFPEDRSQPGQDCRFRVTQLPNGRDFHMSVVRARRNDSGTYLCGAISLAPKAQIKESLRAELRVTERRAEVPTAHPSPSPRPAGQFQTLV
For data set [4], the target named is T1, PD-1 (programmed cell death protein 1). The data set is described as follows: ELONA; +++ class. The following applies: tags: His tag, immobilized on Ni-NTA plate; label: 5'-biotin. The method, then: as §1, §2

T1 sequence (Q02242 25-169, one chain of several): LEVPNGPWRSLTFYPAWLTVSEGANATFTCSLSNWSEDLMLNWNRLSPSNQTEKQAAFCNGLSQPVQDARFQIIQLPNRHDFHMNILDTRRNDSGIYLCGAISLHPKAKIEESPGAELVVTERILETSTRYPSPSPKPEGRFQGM
Chain of PD-1 (programmed cell death protein 1) (Homo sapiens, UniProt Q15116 Q15116:25-170) (Q15116 25-170, one chain of several): as the sequence (Q15116 25-170, one chain of several) above

CCATCTCCC (ssDNA) [Core 1] registered a 50% inhibitory concentration (IC50) in data set [1] of 31.2 nM.

Take CCATCTCCC (ssDNA) [Core 1 (5'-biotin)]: binding in data set [2] was put at a Kd of 44.7 nM.

B1: PD16 (ssDNA)
DNA: TCCCTACGGCGCTAACTGATCACAAGAATAACTATCCCATCTCCCTGCCACCGTGCTACAAC
Regarding B1, in data set [3], the affinity, expressed as Kd, was 2.1 nM.

Molecule TATATTGTCC (ssDNA) [Core 2 (5'-biotin)] returned an equilibrium dissociation constant (Kd) in data set [4] of less than 20 nM.

B2: PD100 (5'-biotin) (ssDNA)
DNA: TCCCTACGGCGCTAACCCTCCCCTAGTATATATTGTCCTCGTCTATGCCACCGTGCTACAAC
B2 returned an equilibrium dissociation constant (Kd) in data set [2] of 44.7 nM.

B3: PD7 (ssDNA)
DNA: TCCCTACGGCGCTAACCTTCCATCTCCCATGCTTAGTCAAACATACGCCACCGTGCTACAAC
Consider B3, for which, in data set [3], the dissociation constant (Kd) amounted to 9.7 nM.

B4: PD7 (5'-biotin) (ssDNA)
DNA: B3 DNA
In data set [4], B4 displayed a dissociation constant (Kd) of less than 20 nM.

(Values after US20170218369, “AN ANTAGONISTIC PD-1 APTAMER AND ITS APPLICATIONS IN CANCER THERAPY RELATED APPLICATIONS” (Academia Sinica, published 2017).)
